Results reported in US20050142561A1 (published 2005).

Biological target: T1, Saccharomyces cerevisiae Fab1p (Saccharomyces cerevisiae, UniProt P34756 1-2278)
T1 construct: Constructs used in the two-hybrid, coimmunoprecipitation and cross-linking experiments are not described; also called PI3P 5-kinase
Experiment: yeast two-hybrid; coimmunoprecipitation; cross-linking

T1 sequence (P34756 whole entry): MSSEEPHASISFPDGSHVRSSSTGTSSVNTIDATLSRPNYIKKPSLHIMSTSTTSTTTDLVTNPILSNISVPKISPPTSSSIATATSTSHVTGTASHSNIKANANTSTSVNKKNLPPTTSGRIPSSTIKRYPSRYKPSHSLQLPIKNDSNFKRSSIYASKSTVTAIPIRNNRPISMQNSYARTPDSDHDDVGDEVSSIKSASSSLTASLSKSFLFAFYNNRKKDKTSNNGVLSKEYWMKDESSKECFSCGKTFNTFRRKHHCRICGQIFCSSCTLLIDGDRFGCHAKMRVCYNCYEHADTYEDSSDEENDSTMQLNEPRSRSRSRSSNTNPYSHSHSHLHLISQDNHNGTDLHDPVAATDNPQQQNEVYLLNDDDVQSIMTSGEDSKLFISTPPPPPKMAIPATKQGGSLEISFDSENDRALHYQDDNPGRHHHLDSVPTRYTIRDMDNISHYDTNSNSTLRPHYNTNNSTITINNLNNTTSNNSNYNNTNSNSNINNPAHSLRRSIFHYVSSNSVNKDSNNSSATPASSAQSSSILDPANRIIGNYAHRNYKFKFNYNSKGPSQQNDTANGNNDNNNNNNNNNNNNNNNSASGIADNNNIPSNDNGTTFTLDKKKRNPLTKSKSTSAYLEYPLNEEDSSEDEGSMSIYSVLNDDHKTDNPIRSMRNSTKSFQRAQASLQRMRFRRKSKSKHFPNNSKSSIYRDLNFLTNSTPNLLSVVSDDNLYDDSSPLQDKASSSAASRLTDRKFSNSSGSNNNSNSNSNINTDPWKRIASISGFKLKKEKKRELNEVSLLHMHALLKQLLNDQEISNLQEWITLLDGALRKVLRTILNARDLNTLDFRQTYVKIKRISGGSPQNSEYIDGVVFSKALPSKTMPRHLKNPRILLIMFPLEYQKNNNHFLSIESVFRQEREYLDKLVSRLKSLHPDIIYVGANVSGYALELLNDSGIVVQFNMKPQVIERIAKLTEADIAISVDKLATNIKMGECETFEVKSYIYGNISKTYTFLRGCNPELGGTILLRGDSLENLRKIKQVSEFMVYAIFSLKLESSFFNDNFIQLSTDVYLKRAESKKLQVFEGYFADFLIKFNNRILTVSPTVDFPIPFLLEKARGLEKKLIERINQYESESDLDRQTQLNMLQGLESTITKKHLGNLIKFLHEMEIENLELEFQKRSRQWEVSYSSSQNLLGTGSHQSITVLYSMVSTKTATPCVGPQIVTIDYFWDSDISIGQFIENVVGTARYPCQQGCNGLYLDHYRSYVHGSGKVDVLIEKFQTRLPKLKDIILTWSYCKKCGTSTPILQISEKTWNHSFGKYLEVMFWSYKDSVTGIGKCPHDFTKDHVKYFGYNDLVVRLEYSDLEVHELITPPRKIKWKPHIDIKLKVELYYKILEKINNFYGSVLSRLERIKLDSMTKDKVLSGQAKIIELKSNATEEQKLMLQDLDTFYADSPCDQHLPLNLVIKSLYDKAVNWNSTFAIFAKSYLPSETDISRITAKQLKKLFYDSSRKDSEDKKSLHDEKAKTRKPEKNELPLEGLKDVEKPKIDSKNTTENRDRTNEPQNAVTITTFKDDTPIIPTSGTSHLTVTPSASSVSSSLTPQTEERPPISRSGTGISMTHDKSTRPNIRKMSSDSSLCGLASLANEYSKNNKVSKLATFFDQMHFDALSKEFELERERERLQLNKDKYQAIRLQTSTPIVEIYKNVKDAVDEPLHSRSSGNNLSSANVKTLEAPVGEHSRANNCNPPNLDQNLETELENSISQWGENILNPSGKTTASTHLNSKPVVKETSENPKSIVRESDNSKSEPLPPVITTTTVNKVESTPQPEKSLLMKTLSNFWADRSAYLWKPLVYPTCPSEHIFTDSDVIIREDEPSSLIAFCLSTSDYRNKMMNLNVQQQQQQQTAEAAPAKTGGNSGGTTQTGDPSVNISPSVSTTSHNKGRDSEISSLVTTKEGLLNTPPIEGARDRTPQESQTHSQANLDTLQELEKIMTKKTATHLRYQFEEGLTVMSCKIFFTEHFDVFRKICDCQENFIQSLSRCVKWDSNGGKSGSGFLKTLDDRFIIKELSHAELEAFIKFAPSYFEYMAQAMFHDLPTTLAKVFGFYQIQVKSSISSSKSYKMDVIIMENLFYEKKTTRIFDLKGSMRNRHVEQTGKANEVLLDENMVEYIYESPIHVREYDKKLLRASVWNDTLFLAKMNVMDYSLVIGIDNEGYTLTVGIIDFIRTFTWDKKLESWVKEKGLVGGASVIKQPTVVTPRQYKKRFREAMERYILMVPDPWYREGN

binding result: no binding
B1: Saccharomyces cerevisiae Vac14p (other)
chain: MEKSIAKGLSDKLYEKRKAAALELEKLVKQCVLEGDYDRIDKIIDELCRDYAYALHQPMARNAGLMGLAATAIALGINDVGRYLRNILPPVLACFGDQNDQVRFYACESLYNIAKIAKGEILVYFNEIFDVLCKISADTENSVRGAAELLDRLIKDIVAERASNYISIVNNGSHGLLPAIKTDPISGDVYQEEYEQDNQLAFSLPKFIPLLTERIYAINPDTRVFLVDWLKVLLNTPGLELISYLPSFLGGLFTFLGDSHKDVRTVTHTLMDSLLHEVDRISKLQTEIKMKRLERLKMLEDKYNNSSTPTKKADGALIAEKKKTLMTALGGLSKPLSMETDDTKLSNTNETDDERHLTSQEQLLDSEATSQEPLRDGEEYIPGQDINLNFPEVITVLVNNLASSEAEIQLIALHWIQVILSISPNVFIPFLSKILSVLLKLLSDSDPHITEIAQLVNGQLLSLCSSYVGKETDGKIAYGPIVNSLTLQFFDSRIDAKIACLDWLILIYHKAPNQILKHNDSMFLTLLKSLSNRDSVLIEKALSLLQSLCSDSNDNYLRQFLQDLLTLFKRDTKLVKTRANFIMRQISSRLSPERVYKVISSILDNYNDTTFVKMMIQILSTNLITSPEMSSLRNKLRTCEDGMFFNSLFKSWCPNPVSVISLCFVAENYELAYTVLQTYANYELKLNDLVQLDILIQLFESPVFTRMRLQLLEQQKHPFLHKCLFGILMIIPQSKAFETLNRRLNSLNIWTSQSYVMNNYIRQRENSNFCDSNSDISQRSVSQSKLHFQELINHFKAVSEEDEYSSDMIRLDHGANNKSLLLGSFLDGIDEDKQEIVTPISPMNEAINEEMESPNDNSSVILKDSGSLPFNRNVSDKLKK
notes: 880 amino acid polypeptide; In the Western blot it is the endogenous protein of yeast cell extracts; also called Vac14 yeast; YLR386W product
